# Laboratory results as given in IntAct's records for PubMed 18715871.
# B1: Serine/threonine-protein phosphatase 4 regulatory subunit 4 (Homo sapiens), Q6NUP7 (parent)
# chain: MHPPPPAAAMDFSQNSLFGYMEDLQELTIIERPVRRSLKTPEEIERLTVDEDLSDIERAVYLLSAGQDVQGTSVIANLPFLMRQNPTETLRRVLPKVREALHVAGVEMQLTAAMSFLTILQDESVSIHAYTHSFLQVILLHLEHRDTGVSNAWLETLLSVIEVLPKETLRHEILNPLVSKAQLSQTVQSRLVSCKILGKLTNKFDAHTIKREILPLVKSLCQDVEYEVRSCMCRQLENIAQGIGTELTKSVVLPELIELSRDEGSSVRLAAFETLVNLLDIFDTDDRSQTILPLVKSFCEKSFKADESILISLSFHLGKLCHGLYGIFTPDQHLRFLEFYKKLCTLGLQQENGHNENQIPPQILEQEKKYISVRKNCAYNFPAMIVFVDPKNFHMELYSTFFCLCHDPEVPVRYTIAICFYEVSKLLNSGVYLIHKELITLLQDESLEVLDALIDHLPEILELMSTGGESSVQENKLSSLPDLIPALTAAEQRAAASLKWRTHEKLLQKYACLPHVISSDQIYYRFLQRMFTIMMTNNVLPVQKAASRTLCIFLRYNRKQEQRHEVIQKLIEQLGQGKSYWNRLRFLDTCEFIIEIFSKSFFCKYFFLPAIELTHDPVANVRMKLCYLLPKVKSTLKIPADKHLLQQLEMCVRKLLCQEKDKDVLAIVKRTVLELDRMEMSMDAFQKKFYEKDLLDQEKEREELLLLEMEQLEKEKQQNDGRPMSDKMFEKKRRDTKTPTQSLPKNIPISVPGPSSVTPSTSKEIKKSKLIRSQSFNNQAFHAKYGNLEKCASKSSTTGYTTSVSGLGKTSVLSLADDSFRTRNASSVPSSFSPNTPLPSTSRGTGNSVDPKSSGSKDTQPRKATLKSRKSNP
# partner: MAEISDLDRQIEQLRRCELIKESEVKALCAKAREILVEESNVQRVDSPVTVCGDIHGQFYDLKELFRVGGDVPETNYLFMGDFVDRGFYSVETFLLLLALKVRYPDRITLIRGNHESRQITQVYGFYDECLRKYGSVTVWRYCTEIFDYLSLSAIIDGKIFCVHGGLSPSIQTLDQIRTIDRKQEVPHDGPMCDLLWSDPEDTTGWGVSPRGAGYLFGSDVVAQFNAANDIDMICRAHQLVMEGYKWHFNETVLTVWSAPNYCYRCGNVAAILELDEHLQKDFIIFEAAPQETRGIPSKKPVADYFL
# B2: Serine/threonine-protein phosphatase 4 catalytic subunit (Homo sapiens), P60510 (parent)
# chain: B1 partner
# partner: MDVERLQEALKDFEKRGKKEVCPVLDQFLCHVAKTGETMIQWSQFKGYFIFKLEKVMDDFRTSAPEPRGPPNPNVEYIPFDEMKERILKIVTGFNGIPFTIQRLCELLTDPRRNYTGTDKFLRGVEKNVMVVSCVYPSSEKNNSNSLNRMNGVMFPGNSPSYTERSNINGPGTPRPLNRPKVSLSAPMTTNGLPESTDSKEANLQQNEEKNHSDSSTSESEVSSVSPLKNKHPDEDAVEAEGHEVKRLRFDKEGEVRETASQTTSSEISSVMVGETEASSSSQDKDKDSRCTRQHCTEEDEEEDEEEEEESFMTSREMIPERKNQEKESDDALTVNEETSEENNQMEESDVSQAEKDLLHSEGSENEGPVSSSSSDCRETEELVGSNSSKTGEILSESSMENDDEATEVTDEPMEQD
# B3: Serine/threonine-protein phosphatase 4 catalytic subunit (Homo sapiens), P60510 (parent)
# chain: B1 partner
# partner: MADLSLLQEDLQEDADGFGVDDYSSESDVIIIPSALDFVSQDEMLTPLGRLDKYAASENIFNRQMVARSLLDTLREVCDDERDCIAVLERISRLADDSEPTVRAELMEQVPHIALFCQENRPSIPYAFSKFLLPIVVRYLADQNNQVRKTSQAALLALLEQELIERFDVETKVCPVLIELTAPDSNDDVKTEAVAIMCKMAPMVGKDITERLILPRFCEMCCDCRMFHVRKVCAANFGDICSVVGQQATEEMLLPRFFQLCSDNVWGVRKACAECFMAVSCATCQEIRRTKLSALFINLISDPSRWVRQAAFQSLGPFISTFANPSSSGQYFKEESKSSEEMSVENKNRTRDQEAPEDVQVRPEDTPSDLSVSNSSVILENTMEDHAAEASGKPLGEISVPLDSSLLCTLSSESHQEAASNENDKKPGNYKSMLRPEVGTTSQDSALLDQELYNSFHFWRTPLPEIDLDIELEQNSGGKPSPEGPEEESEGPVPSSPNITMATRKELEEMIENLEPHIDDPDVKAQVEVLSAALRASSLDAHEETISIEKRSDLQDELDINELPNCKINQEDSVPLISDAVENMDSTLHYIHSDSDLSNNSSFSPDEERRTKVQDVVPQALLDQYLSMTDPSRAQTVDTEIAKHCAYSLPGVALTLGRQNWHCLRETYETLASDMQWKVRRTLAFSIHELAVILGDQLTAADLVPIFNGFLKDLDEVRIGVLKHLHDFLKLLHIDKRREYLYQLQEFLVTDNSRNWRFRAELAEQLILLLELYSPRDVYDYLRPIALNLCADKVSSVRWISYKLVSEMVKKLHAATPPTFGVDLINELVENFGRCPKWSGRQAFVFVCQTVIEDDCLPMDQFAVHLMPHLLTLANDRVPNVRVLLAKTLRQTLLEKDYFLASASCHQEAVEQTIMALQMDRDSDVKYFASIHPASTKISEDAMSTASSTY
# B4: Serine/threonine-protein phosphatase 4 catalytic subunit (Homo sapiens), P60510 (parent)
# chain: B1 partner
# partner: B1 chain
# Variants of: B1
# Conditions: with pp4c_human PPP4C
row,Variant,effect of a mutation on the interaction
1,R501D,disrupting interaction
2,V618D,disrupting interaction
3,V618A,disrupting interaction

# Variants of: B2
# Conditions: with pp4r2_human PPP4R2, Q9NY27
row,Variant,effect of a mutation on the interaction
1,MAEISDLDRQIEQLRRCELIKESEVKALCAKAREILVEKSNVQRVDSPVTVCGDIHGQFYDLKELFRVGGDVPETNYLFMGDFVDRGFYSVETFLLLLALKVRYPDRITLIRGNHESRQITQVYGFYDECLRKYGSVTVWRYCTEIFDYLSLSAIIDGKIFCVHGGLSPSIQTLDQIRTIDRKQEVPHDGPMCDLLWSDPEDTTGWGVSPRGAGYLFGSDVVAQFNAANDIDMICRAHQLVMEGYKWHFNETVLTVWSAPNYCYRCGNVAAILELDEHLQKDFIIFEAAPQETRGIPSKKPVADYFL [E39K],disrupting interaction
2,MAEISDLDRQIEQLRRCELIKESEVKALCAKAREILVEESNVQRVDSPVTVCGDIHGQFYDLKELFRVGGDVPETNYLFMGDFVDRGFYSVETFLLLLALKVRYPDEITLIRGNHESRQITQVYGFYDECLRKYGSVTVWRYCTEIFDYLSLSAIIDGKIFCVHGGLSPSIQTLDQIRTIDRKQEVPHDGPMCDLLWSDPEDTTGWGVSPRGAGYLFGSDVVAQFNAANDIDMICRAHQLVMEGYKWHFNETVLTVWSAPNYCYRCGNVAAILELDEHLQKDFIIFEAAPQETRGIPSKKPVADYFL [R107E],disrupting interaction
3,MAEISDLDRQIEQLRRCELIKESEVKALCAKAREILVEESNVQRVDSPVTVCGDIHGQFYDLKELFRVGGDVPETNYLFMGDFVDRGFYSVETFLLLLALKVRYPDRITLIRGNHESRQITQVYGFYDECLRKYGSVTVWRYCTEIFDYLSLSAIIDGKIFCVHGGLSPSIQTLDQIRTIDRKQEVPHDGPMCDLLWSDPEDTTGWGVSPRGAGYLFGSDVVAQFNAANDIDMICRAHQLVMEGYKWHFNETVLTVWSAPNYCYRCGNVAAILELDKHLQKDFIIFEAAPQETRGIPSKKPVADYFL [E277K],decreasing interaction
4,MAEISDLDRQIEQLRRCELIKESEVKALCAKAREILVEESNVQRVDSPVTVCGDIHGQFYDLKELFRVGGDVPETDYLFMGDFVDRGFYSVETFLLLLALKVRYPDRITLIRGNHESRQITQVYGFYDECLRKYGSVTVWRYCTEIFDYLSLSAIIDGKIFCVHGGLSPSIQTLDQIRTIDRKQEVPHDGPMCDLLWSDPEDTTGWGVSPRGAGYLFGSDVVAQFNAANDIDMICRAHQLVMEGYKWHFNETVLTVWSAPNYCYRCGNVAAILELDEHLQKDFIIFEAAPQETRGIPSKKPVADYFL [N76D],disrupting interaction

# Variants of: B3
# Conditions: with pp4r1_human PPP4R1, Q8TF05
row,Variant,effect of a mutation on the interaction
1,MAEISDLDRQIEQLRRCELIKESEVKALCAKAREILVEESNVQRVDSPVTVCGDIHGQFYDLKELFRVGGDVPETDYLFMGDFVDRGFYSVETFLLLLALKVRYPDRITLIRGNHESRQITQVYGFYDECLRKYGSVTVWRYCTEIFDYLSLSAIIDGKIFCVHGGLSPSIQTLDQIRTIDRKQEVPHDGPMCDLLWSDPEDTTGWGVSPRGAGYLFGSDVVAQFNAANDIDMICRAHQLVMEGYKWHFNETVLTVWSAPNYCYRCGNVAAILELDEHLQKDFIIFEAAPQETRGIPSKKPVADYFL [N76D],disrupting interaction
2,MAEISDLDRQIEQLRRCELIKESEVKALCAKAREILVEESNVQRVDSPVTVCGDIHGQFYDLKKLFRVGGDVPETNYLFMGDFVDRGFYSVETFLLLLALKVRYPDRITLIRGNHESRQITQVYGFYDECLRKYGSVTVWRYCTEIFDYLSLSAIIDGKIFCVHGGLSPSIQTLDQIRTIDRKQEVPHDGPMCDLLWSDPEDTTGWGVSPRGAGYLFGSDVVAQFNAANDIDMICRAHQLVMEGYKWHFNETVLTVWSAPNYCYRCGNVAAILELDEHLQKDFIIFEAAPQETRGIPSKKPVADYFL [E64K],disrupting interaction
3,MAEISDLDRQIEQLRRCELIKESEVKALCAKAREILVEESNVQRVDSPVTVCGDIHGQFYDLKELFRVGGDVPETNYLFMGDFVDRGFYSVETFLLLLALKVRYPDEITLIRGNHESRQITQVYGFYDECLRKYGSVTVWRYCTEIFDYLSLSAIIDGKIFCVHGGLSPSIQTLDQIRTIDRKQEVPHDGPMCDLLWSDPEDTTGWGVSPRGAGYLFGSDVVAQFNAANDIDMICRAHQLVMEGYKWHFNETVLTVWSAPNYCYRCGNVAAILELDEHLQKDFIIFEAAPQETRGIPSKKPVADYFL [R107E],disrupting interaction
4,MAEISDLDRQIEQLRRCELIKESEVKALCAKAREILVEESNVQRVDSPVTVCGDIHGQFYDLKELFRVGGDVPETNYLFMGDFVDRGFYSVETFLLLLALKVRYPDRITLIRGNHESRQITQVYGFYDECLRKYGSVTVWRYCTEIFDYLSLSAIIDGKIFCVHGGLSPSIQTLDQIRTIDRKQEVPHDGPMCDLLWSDPEDTTGWGVSPRGAGYLFGSDVVAQFNAANDIDMICRAHQLVMEGYKWHFNETVLTVWSAPNYCYRCGNVAAILELDKHLQKDFIIFEAAPQETRGIPSKKPVADYFL [E277K],decreasing interaction
5,MAEISDLDRQIEQLRRCELIKESEVKALCAKAREILVEKSNVQRVDSPVTVCGDIHGQFYDLKELFRVGGDVPETNYLFMGDFVDRGFYSVETFLLLLALKVRYPDRITLIRGNHESRQITQVYGFYDECLRKYGSVTVWRYCTEIFDYLSLSAIIDGKIFCVHGGLSPSIQTLDQIRTIDRKQEVPHDGPMCDLLWSDPEDTTGWGVSPRGAGYLFGSDVVAQFNAANDIDMICRAHQLVMEGYKWHFNETVLTVWSAPNYCYRCGNVAAILELDEHLQKDFIIFEAAPQETRGIPSKKPVADYFL [E39K],disrupting interaction

# Variants of: B4
# Conditions: with pp4r4_human PPP4R4, Q6NUP7
row,Variant,effect of a mutation on the interaction
1,MAEISDLDRQIEQLRRCELIKESEVKALCAKAREILVEKSNVQRVDSPVTVCGDIHGQFYDLKELFRVGGDVPETNYLFMGDFVDRGFYSVETFLLLLALKVRYPDRITLIRGNHESRQITQVYGFYDECLRKYGSVTVWRYCTEIFDYLSLSAIIDGKIFCVHGGLSPSIQTLDQIRTIDRKQEVPHDGPMCDLLWSDPEDTTGWGVSPRGAGYLFGSDVVAQFNAANDIDMICRAHQLVMEGYKWHFNETVLTVWSAPNYCYRCGNVAAILELDEHLQKDFIIFEAAPQETRGIPSKKPVADYFL [E39K],decreasing interaction
2,MAEISDLDRQIEQLRRCELIKESEVKALCAKAREILVEESNVQRVDSPVTVCGDIHGQFYDLKKLFRVGGDVPETNYLFMGDFVDRGFYSVETFLLLLALKVRYPDRITLIRGNHESRQITQVYGFYDECLRKYGSVTVWRYCTEIFDYLSLSAIIDGKIFCVHGGLSPSIQTLDQIRTIDRKQEVPHDGPMCDLLWSDPEDTTGWGVSPRGAGYLFGSDVVAQFNAANDIDMICRAHQLVMEGYKWHFNETVLTVWSAPNYCYRCGNVAAILELDEHLQKDFIIFEAAPQETRGIPSKKPVADYFL [E64K],disrupting interaction
3,MAEISDLDRQIEQLRRCELIKESEVKALCAKAREILVEESNVQRVDSPVTVCGDIHGQFYDLKELFRVGGDVPETNYLFMGDFVDRGFYSVETFLLLLALKVRYPDEITLIRGNHESRQITQVYGFYDECLRKYGSVTVWRYCTEIFDYLSLSAIIDGKIFCVHGGLSPSIQTLDQIRTIDRKQEVPHDGPMCDLLWSDPEDTTGWGVSPRGAGYLFGSDVVAQFNAANDIDMICRAHQLVMEGYKWHFNETVLTVWSAPNYCYRCGNVAAILELDEHLQKDFIIFEAAPQETRGIPSKKPVADYFL [R107E],decreasing interaction
4,MAEISDLDRQIEQLRRCELIKESEVKALCAKAREILVEESNVQRVDSPVTVCGDIHGQFYDLKELFRVGGDVPETNYLFMGDFVDRGFYSVETFLLLLALKVRYPDRITLIRGNHESRQITQVYGFYDECLRKYGSVTVWRYCTEIFDYLSLSAIIDGKIFCVHGGLSPSIQTLDQIRTIDRKQEVPHDGPMCDLLWSDPEDTTGWGVSPRGAGYLFGSDVVAQFNAANDIDMICRAHQLVMEGYKWHFNETVLTVWSAPNYCYRCGNVAAILELDKHLQKDFIIFEAAPQETRGIPSKKPVADYFL [E277K],disrupting interaction
5,MAEISDLDRQIEQLRRCELIKESEVKALCAKAREILVEESNVQRVDSPVTVCGDIHGQFYDLKELFRVGGDVPETDYLFMGDFVDRGFYSVETFLLLLALKVRYPDRITLIRGNHESRQITQVYGFYDECLRKYGSVTVWRYCTEIFDYLSLSAIIDGKIFCVHGGLSPSIQTLDQIRTIDRKQEVPHDGPMCDLLWSDPEDTTGWGVSPRGAGYLFGSDVVAQFNAANDIDMICRAHQLVMEGYKWHFNETVLTVWSAPNYCYRCGNVAAILELDEHLQKDFIIFEAAPQETRGIPSKKPVADYFL [N76D],decreasing interaction
